We go through one molecule from patent US20180271960A1, “METHOD TO TREAT CANCER USING ARGININE DELPETOR AND ORNITHINE DECARBOXYLASE (ODC) INHIBITOR” (Bio-Cancer Treatment International Ltd., priority 2015, published 2018).

“Also recorded” adds a separate entry of the source.

Series [1] concerns lung adenocarcinoma cell lines (H358, H1650, H1975, and HCC4006). Put plainly: Intracellular arginine level by arginine ELISA kit. Format: cell-based. To be noted: all examined cell lines; IC50 concentrations and 0.1 μg/μl. As for the experimental part: In one example embodiment, four lung adenocarcinoma cell lines (i.e. H358, H1650, H1975, and HCC4006), obtained from ATCC, are treated with PEG-BCT-100 at IC50 concentrations and 0.1 μg/μl. Internalization of PEG-BCT-100 by lung adenocarcinoma cells are assessed by immunocytochemistry using anti-PEG-antibodies. Detection is done using anti-rabbit Alexa 488 conjugated secondary antibody and visualization is performed using a fluorescent microscope. The PEG-BCT-100 treated lung adenocarcinoma cells are lysed in RIPA buffer for determination of arginine level by K7733 arginine ELISA kit from Immunodiagnostik.
(In general: An ELISA detects its analyte on a solid surface through an enzyme-linked reagent.)

Series [2] concerns H358 lung adenocarcinoma cell line. Put plainly: MTT assay, growth inhibition of H358 cell line. To be noted: 48 h and 72 h at 10 ng/μl. Format: cell-based. As for the experimental part:
(§1) The inhibition ratio (IR) and the half maximal inhibitory concentration (IC50) values are determined by a MTT assay.
A general note: Tetrazolium dyes change colour on reduction, which living cells bring about.

Series [3] concerns HCC4006 lung adenocarcinoma xenografts. Put plainly: HCC4006 lung adenocarcinoma xenograft. Format: in vivo, BALB/c nude mice. As for the experimental part: In one example embodiment, ten million lung adenocarcinoma cells from cell lines H1650, H1975, and HCC4006 are engrafted subcutaneously in BALB/cnude mice (4 weeks old with body weight of 10-14 g). Body weight, clinical signs and survival times are recorded.
Two groups of the mice, with eight mice in each group, are tested. Control group (negative control) receives physiological saline and treatment group receives 20 mg/kg of PEG-BCT-100. PEG-BCT-100 is administered via intraperitoneal (IP) injection, twice weekly, until euthanization.
In one example embodiment, ten million lung adenocarcinoma cells from cell lines H1650, H1975 and HCC4006 are engrafted subcutaneously in BALB/cnude mice (4 weeks old with body weight of 10-14 g). Body weight, clinical signs and survival times are recorded.
Four groups of the mice, with eight mice in each group, are tested. Control group (negative control) receives physiological saline, and the three treatment groups respectively receive 20 mg/kg of PEG-BCT-100 alone, 2% w/v DFMO in drinking water, and combination of 20 mg/kg of PEG-BCT-100 and 2% w/v DFMO. PEG-BCT-100 is administered intraperitoneally, twice a week, until euthanization while DFMO is supplied in drinking water at 2% w/v.

The subject of series [4] is lung adenocarcinoma cell lines (H23, H358, HCC827, H1650, H1975, HCC2935, HCC4006, and A549). Briefly: MTT assay on the panel of eight lung adenocarcinoma cell lines. The note with it: all tested cell lines; MTT assay after treatment for 72 h. Format: cell-based. As for the experimental part:
as §1

For series [5], the system named is H23 lung adenocarcinoma cell line. Briefly: MTT assay, growth inhibition of H23 cell line. Format: cell-based. To be noted: 48 h and 72 h at 0.5 ng/μl and 10 ng/μl. As for the experimental part:
as §1

B1: PEG-BCT-100: pegylated recombinant human arginase I (SEQ ID NO.1, or SEQ ID NO.3 with six histidines), about 6-12 PEG molecules per arginase (protein, UniProt P05089 1-322, looked up)
Arginase-1: MSAKSRTIGIIGAPFSKGQPRGGVEEGPTVLRKAGLLEKLKEQECDVKDYGDLPFADIPNDSPFQIVKNPRSVGKASEQLAGKVAEVKKNGRISLVLGGDHSLAIGSISGHARVHPDLGVIWVDAHTDINTPLTTTSGNLHGQPVSFLLKELKGKIPDVPGFSWVTPCISAKDIVYIGLRDVDPGEHYILKTLGIKYFSMTEVDRLGIGKVMEETLSYLLGRKKRPIHLSFDVDGLDPSFTPATGTPVVGGLTYREGLYITEEIYKTGLLSGLDIMEVNPSLGKTPEEVTRTVNTAVAITLACFGLAREGNHKPIDYLNPPK
modifications: PEG, about 6-12 per arginase; optional His6 tag
As for B1, in series [1], the “intracellular (cytosolic) arginine level” value was “depletes intracellular arginine significantly; also recorded: able to deplete cytosolic arginine level significantly”. The “growth inhibition effect (cell proliferation)” value in series [2] is listed as “inhibits H358 lung adenocarcinoma cell line proliferation more effectively than ADI”; in series [5], “inhibits H23 lung adenocarcinoma cell line proliferation more effectively than ADI”. Further, the tumour growth entry in series [3] (PEG-BCT-100 20 mg/kg IP twice weekly, DFMO 2% w/v in drinking water, 20 mg/kg) is “suppresses tumor growth; also recorded: inhibits tumour growth”. Moreover, in series [3] (PEG-BCT-100 20 mg/kg vs control arm), the “in vivo ASS1 expression (Western blot)” value is on record as “remains unchanged”. Further, the “in vivo ODC expression (Western blot)” value in series [3] (PEG-BCT-100 20 mg/kg vs control arm, 20 mg/kg) is “remains negative; also recorded: does not show upregulation of ODC”. Besides, in series [4], the “cytotoxicity (cell viability)” value is recorded as “induces cytotoxicity in all tested lung adenocarcinoma cell lines”.
